Here are results for 2 sequences from US20070066547.

Bounds are passed on as bounds.

Series [1] relates to HIV-1 Ba-L virus (gp120) (Human immunodeficiency virus 1 (Ba-L)). The series can be described thus: cell_activity. The conditions noted are these: 2'-F pyrimidines (U, C).
In series [2] the test system is HIV-1 Ba-L break-through clones after B4 selection (gp120) (Human immunodeficiency virus 1 (Ba-L)). The series can be described thus: cell_activity. To be noted: 2'-F pyrimidines (U, C); 100 nM aptamer; all four break-through clones neutralised.
In series [3] the test system is gp120 envelope glycoprotein, HIV-1 Ba-L (SU) (Human immunodeficiency virus 1 (Ba-L)). The series can be described thus: competition. To be noted: 2'-F pyrimidines (U, C); at highest aptamer concentration, no CD4; 48d inhibited at nM with CD4; CG10 and sCD4 binding not inhibited.

As for “AUGACGUACCCGCACAAGCCACCACAAGUCUUAAUCGCGCCACCCUUGC [B84]”, the activity (log10 IU/ml reduction) in series [1] (100 nM aptamer, PBMC TCID50) is over 4.
As to “GAGCGGUUAAGGGAGAUUUAGGCAGCAGCUUGGACAGUGUAUCGGCUGAG [B4]”, the concentration for half-maximal inhibition (IC50) (usually the point on the concentration scale where inhibition reaches its midpoint) in series [1] (neutralisation in human PBMC, about 5 log10 at 100 nM) was under 1 nM. This sequence also yielded an activity (log10 IU/ml reduction) in series [2] of over 4. Also, the binding signal (% inhibition of mAb 17b binding) in series [3] turned out to be 50.
